Measured values taken from US20250250357A1 (NANJING ZAIMING PHARMACEUTICAL, published 2025).

T1: human MSLN-R1-his protein (human, UniProt Q13421 296-390)
T1 construct: Made in HEK293E cells, purified on nickel column; also called hMSLN-R1-his; human MSLN-R1 protein; not shown: His tag
T1 chain: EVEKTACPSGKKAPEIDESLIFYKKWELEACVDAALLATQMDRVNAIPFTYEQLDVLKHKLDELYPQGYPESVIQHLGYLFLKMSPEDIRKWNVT

T2: human MSLN-R1-his protein (human, UniProt Q13421 296-390)
T2 construct: Region 1 of human mesothelin, made in HEK293E cells, His-tagged; also called human MSLN-R1 protein; hMSLN-R1-his; not shown: His tag
T2 chain: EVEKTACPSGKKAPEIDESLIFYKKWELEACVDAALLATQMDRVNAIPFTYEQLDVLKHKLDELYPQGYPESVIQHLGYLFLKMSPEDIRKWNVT


What was measured:
[1] = target: T3, human MSLN-FL-his protein (human, UniProt Q13421 296-580); assay: ELISA, coated antigen, antibody 2 nM
T3 construct: Made in HEK293E cells, purified on nickel column; also called hMSLN-FL-his; human MSLN full-length protein; not shown: His tag
T3 sequence (Q13421 other isoform, or with tags, fused parts or gaps): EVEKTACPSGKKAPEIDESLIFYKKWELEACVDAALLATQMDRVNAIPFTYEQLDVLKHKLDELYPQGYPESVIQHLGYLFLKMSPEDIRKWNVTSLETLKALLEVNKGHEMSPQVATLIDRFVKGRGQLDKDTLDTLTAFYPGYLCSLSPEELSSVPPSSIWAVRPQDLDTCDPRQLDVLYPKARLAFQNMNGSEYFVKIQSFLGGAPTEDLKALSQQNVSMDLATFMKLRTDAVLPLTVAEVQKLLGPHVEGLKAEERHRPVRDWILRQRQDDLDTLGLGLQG

[2] = target: T1, human MSLN-R1-his protein; assay: ELISA, coated antigen, antibody 2 nM
Experimental: (§1) The plate was sealed with a plastic film and incubated at 4° C. overnight. The next day, the plate was washed twice with PBST, and a blocking buffer [PBS+2% (w/w) BSA] was added for blocking at room temperature for 2 h. The blocking buffer was discarded, and a chimeric antibody or negative control antibody serially diluted from 100 nM was added at 50 μL/well. After incubation at 37° C. for 2 h, the plate was washed 3 times with PBST. […] After incubation at 37° C. for 2 h, the plate was washed 5 times with PBST. A TMB substrate was added at 50 μL/well for incubation at room temperature for 5-10 min, and then a stop solution (1.0 N HCl) was added at 50 μL/well.

[3] = target: T3, human MSLN-FL-his protein; assay: ELISA, coated antigen, antibody 20 nM
Experimental: as §1

[4] = target: T1, human MSLN-R1-his protein; assay: ELISA, coated antigen, antibody 20 nM
Experimental: as §1

[5] = target: T3, human MSLN-FL-his protein; assay: ELISA, coated antigen, antibody 0.2 nM
Experimental: as §1

[6] = target: T3, human MSLN-FL-his protein; assay: ELISA, coated antigen, antibody 200 nM
Experimental: as §1

[7] = target: T1, human MSLN-R1-his protein; assay: ELISA, coated antigen, antibody 0.2 nM
Experimental: as §1

[8] = target: T1, human MSLN-R1-his protein; assay: ELISA, coated antigen, antibody 200 nM
Experimental: as §1

[9] = target: T3, human MSLN-FL-his protein; assay: ELISA, coated antigen, antibody 0.02 nM
[10] = target: T1, human MSLN-R1-his protein; assay: ELISA, coated antigen, antibody 0.02 nM
Experimental: as §1

[11] = target: T3, human MSLN-FL-his protein; assay: ELISA, coated antigen, antibody 0.002 nM
Experimental: as §1

[12] = target: T1, human MSLN-R1-his protein; assay: ELISA, coated antigen, antibody 0.002 nM
Experimental: as §1

[13] = target: T3, human MSLN-FL-his protein; assay: ELISA, coated antigen, antibody 0.0002 nM
Experimental: as §1

[14] = target: T1, human MSLN-R1-his protein; assay: ELISA, coated antigen, antibody 0.0002 nM
Experimental: as §1

[15] = target: T3, human MSLN-FL-his protein; assay: ELISA, coated antigen, no antibody (blank)
Experimental: as §1

[16] = target: T1, human MSLN-R1-his protein; assay: ELISA, coated antigen, no antibody (blank)
Experimental: as §1

[17] = target: T2, human MSLN-R1-his protein; assay: ELISA on coated MSLN-R1; antibody 1 nM
[18] = target: T4, human MSLN-R2-his protein (human, UniProt Q13421 391-486); assay: ELISA on coated MSLN-R2; antibody 1 nM
T4 construct: Region 2 of human mesothelin, made in HEK293E cells, His-tagged; also called human MSLN-R2 protein; hMSLN-R2-his; not shown: His tag
T4 sequence (Q13421 other isoform, or with tags, fused parts or gaps): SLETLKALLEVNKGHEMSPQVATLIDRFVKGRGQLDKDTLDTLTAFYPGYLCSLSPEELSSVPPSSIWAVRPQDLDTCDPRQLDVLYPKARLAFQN

[19] = target: T2, human MSLN-R1-his protein; assay: ELISA on coated MSLN-R1; antibody 10 nM
[20] = target: T4, human MSLN-R2-his protein; assay: ELISA on coated MSLN-R2; antibody 10 nM
[21] = target: T2, human MSLN-R1-his protein; assay: ELISA on coated MSLN-R1; antibody 0.1 nM
Experimental: as §1

[22] = target: T2, human MSLN-R1-his protein; assay: ELISA on coated MSLN-R1; antibody 100 nM
Experimental: as §1

[23] = target: T4, human MSLN-R2-his protein; assay: ELISA on coated MSLN-R2; antibody 0.1 nM
Experimental: as §1

[24] = target: T4, human MSLN-R2-his protein; assay: ELISA on coated MSLN-R2; antibody 100 nM
Experimental: as §1

[25] = target: T2, human MSLN-R1-his protein; assay: ELISA on coated MSLN-R1; antibody 0.01 nM
[26] = target: T4, human MSLN-R2-his protein; assay: ELISA on coated MSLN-R2; antibody 0.01 nM
[27] = target: T2, human MSLN-R1-his protein; assay: ELISA on coated MSLN-R1; antibody 0.001 nM
[28] = target: T4, human MSLN-R2-his protein; assay: ELISA on coated MSLN-R2; antibody 0.001 nM
[29] = target: T2, human MSLN-R1-his protein; assay: ELISA on coated MSLN-R1; antibody 0.0001 nM
Experimental: as §1

[30] = target: T4, human MSLN-R2-his protein; assay: ELISA on coated MSLN-R2; antibody 0.0001 nM
Experimental: as §1

[31] = target: T2, human MSLN-R1-his protein; assay: ELISA on coated MSLN-R1; no antibody (blank)
Experimental: as §1

[32] = target: T4, human MSLN-R2-his protein; assay: ELISA on coated MSLN-R2; no antibody (blank)
Experimental: as §1

Row | OD450 [1] | OD450 [2] | OD450 [3] | OD450 [4] | OD450 [5] | OD450 [6] | OD450 [7] | OD450 [8] | OD450 [9] | OD450 [10] | OD450 [11] | OD450 [12] | OD450 [13] | OD450 [14] | OD450 [15] | OD450 [16] | Binder | further results
1 | 2.11 | 0.05 | 2.12 | 0.05 | 2.1 | 2.13 | 0.05 | 0.08 | 1.35 | 0.05 | 0.52 | 0.05 | 0.24 | 0.05 | 0.06 | 0.07 | S009-F7.65.13 chimeric antibody (antibody, human IgG1, kappa, V domains shown, Human-murine chimeric antibody, human IgG1/kappa constant regions) VH: EVQLQQSGPELVKPGTSVKILCKASGDTFTAYNMDWVKQRHGQSLEWIGDINPNTDSTIYNQKFEGKAILTVDKSSSTAYMELRSLTSEDTAVYYCARRKLGRGYFDYWGQGTTLTVSS VL: QIVLTQSPAIMSASPGEKVTMTCSVNLSVRYIYWYQQKPGSSPRLLIHDTSNLASGVPVRFSGSGSGTSYSLTISRMEAEDAATYYCQQWSSFPYTFGGGTKLEIKR | 
2 | 2.23 | 0.05 | 2.2 | 0.06 | 2.24 | 2.1 | 0.04 | 0.13 | 1.77 | 0.04 | 1.19 | 0.04 | 0.77 | 0.06 | 0.07 | 0.06 | S009-F7.66.12 chimeric antibody (antibody, human IgG1, kappa, V domains shown, Human-murine chimeric antibody, human IgG1/kappa constant regions) VH: QIPLQQSGPELVKPGASVRISCKASDYAFSSSWMNWVKQRPEKGLEWIGRIFVESGNTHYNDKFNGKATLTADKSSRTAYIQLSSLTSEDSAVYFCTRENIFYHGHSSWFAYWGQGTLVTVSA VL: DIVLTQSPASLVVSLGQRATISCRAGESVDDFGISYVHWYQQKPGQPPKLLIYRAANLESGIPARFSGSGSRTDFTLTINPVETDDVAIYYCQQNNKDPFTFGSGTKLEIKR | 

The remaining lines, values behind:

Row | Binder | OD450 [1] | OD450 [2] | OD450 [3] | OD450 [4] | OD450 [5] | OD450 [6] | OD450 [7] | OD450 [8] | OD450 [9] | OD450 [10] | OD450 [11] | OD450 [12] | OD450 [13] | OD450 [14] | OD450 [15] | OD450 [16] | further results
3 | S009-F7.69.8 chimeric antibody (antibody, human IgG1, kappa, V domains shown, Human-murine chimeric antibody, human IgG1/kappa constant regions) VH: EVHLQQSGPELVKPGASVRIPCKASGYTFTDYNMDWVKQSHGKSLEWIGDINPDNGGTIYTQKFKGKATLTVDKSSSTAYMELRSLTSEDTAVYYCARRLHYYGSSGLDYWGQGTTLTVSS VL: DIQMTQSPASLSAYVGETVTITCRASGNIHNYLAWYQQKQGKSPQLLVYNAKTLADGVPSRFSGSGSGTQYSLKINSLQPEDFGSYYCQHFWSTVWTFGGGTKLEIKR | 2.29 | 0.04 | 2.26 | 0.06 | 2.15 | 2.1 | 0.05 | 0.11 | 1.42 | 0.04 | 0.43 | 0.05 | 0.13 | 0.05 | 0.06 | 0.07 | 
4 | S009-F8-7.5 (antibody, human IgG1, kappa, V domains shown) VH: DVQLQESGPGLVKPSQSLSLTCSVTGYSITSGYYWNWIRQFPGNKLEWMAYIRYDGSNNYNPSLKNRISIIRDTSKNQFFLRLNSVTTEDTATYYCAKSYYGMDDWGQGISVTVSS VL: DIQMTQSPASLSASVGETVTITCRTSGDIHNYLAWYQQKQGKSPQLLVYKAKTLENGVPSRFTGSGSGTQFSLKIDSLQPEDFGTYYCQHFWTTPYTFGGGTKLEIKR |  |  |  |  |  |  |  |  |  |  |  |  |  |  |  |  | OD450 [17]: 0.05 OD450; OD450 [18]: 1.85 OD450; OD450 [19]: 0.06 OD450; OD450 [20]: 2.18 OD450; OD450 [21]: 0.05 OD450; OD450 [22]: 0.12 OD450; OD450 [23]: 1.18 OD450; OD450 [24]: 2.32 OD450; OD450 [25]: 0.04 OD450; OD450 [26]: 0.31 OD450; OD450 [27]: 0.05 OD450; OD450 [28]: 0.09 OD450; OD450 [29]: 0.04 OD450; OD450 [30]: 0.06 OD450; OD450 [31]: 0.05 OD450; OD450 [32]: 0.05 OD450
5 | S009-F7.67.12 chimeric antibody (antibody, human IgG1, kappa, V domains shown, Human-murine chimeric antibody, human IgG1/kappa constant regions) VH: QVQLQQPGTELVKPGASVRLSCRASGYSFSSYWMHWVKQRPGQGLEWLGNINPTTGDINYNEKFRNRATLAVDKSSTTAYLQLTSLTSEDSAVYFCVRHDGFLWGQGTTLTVSS VL: DIQMTQSPASLSASVGETVTITCRASENIYSYLAWYQQKQGKSPQLLVYYAKTLAEGVSSRFSGSGSGTQFSLKINSLQPEDFGTYYCQHQFGTPRTFGGGTKLEIRR | 2.07 | 0.05 | 2.23 | 0.05 | 1.78 | 1.96 | 0.05 | 0.07 | 0.75 | 0.05 | 0.23 | 0.05 | 0.13 | 0.04 | 0.05 | 0.07 | 
